This note sets out measurements from US20070003517A1 (UNIVERSITY OF MASSACHUSETTS, published 2007).

Data set [1] has as its system T1, JIP-1 (as added to the in vitro protein kinase assay).
T1 sequence: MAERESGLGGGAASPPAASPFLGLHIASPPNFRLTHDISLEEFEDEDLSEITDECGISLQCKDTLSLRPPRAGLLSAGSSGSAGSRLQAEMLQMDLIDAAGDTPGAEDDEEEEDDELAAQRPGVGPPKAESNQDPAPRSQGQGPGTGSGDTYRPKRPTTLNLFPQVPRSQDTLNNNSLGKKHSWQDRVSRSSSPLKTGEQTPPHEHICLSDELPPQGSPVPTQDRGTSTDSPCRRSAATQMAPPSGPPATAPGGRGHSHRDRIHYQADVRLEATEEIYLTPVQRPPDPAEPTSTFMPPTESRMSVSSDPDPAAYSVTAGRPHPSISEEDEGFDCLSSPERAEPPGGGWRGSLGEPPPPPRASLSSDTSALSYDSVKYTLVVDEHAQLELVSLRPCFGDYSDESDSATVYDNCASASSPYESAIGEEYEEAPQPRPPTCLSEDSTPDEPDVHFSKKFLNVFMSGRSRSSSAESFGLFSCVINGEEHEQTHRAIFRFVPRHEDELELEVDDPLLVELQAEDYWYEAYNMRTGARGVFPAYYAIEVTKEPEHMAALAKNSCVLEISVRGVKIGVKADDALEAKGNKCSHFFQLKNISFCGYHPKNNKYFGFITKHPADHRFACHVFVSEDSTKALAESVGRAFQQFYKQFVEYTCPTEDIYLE

For data set [2], the target named is T2, Flag epitope-tagged JNK1 (cell lysate) (human, UniProt P45983-2 1-384, limits assumed).
T2 construct: written N-terminal here
Description: GST pull-down from cell lysate, anti-Flag (M2) immunoblot. As to the method:
To test whether JIP-1 binding to JNK is also isoform-dependent, a binding assay was utilized. Cell lysates (1 ml in TLB) containing JNK1, JNK2, or p38 MAP kinase, each tagged with the Flag epitope, were incubated with 5 μg GST-fusion proteins pre-bound to 10 μl glutathione-Sepharose. […] The GST-ATF2 fusion protein contains residues 1-109 of ATF2, and the GST-Jun fusion protein contains residues 1-79 of c-Jun. After incubation for one hour at 4° C. and three washes with TLB, bound proteins were detected by protein immunoblot analysis with the M2 monoclonal antibody, which is specific for the Flag epitope. Dérijard, et al., supra; Sluss et al., supra; Gupta et al., supra. When ATF2 or c-jun GST fusion proteins were used in this assay, binding to JNK1 was greater than binding to JNK2. This finding is consistent with the results of previous studies. […] The level of binding of these fusion proteins to JNK1 was similar to the level of binding to JNK2.

T2 sequence (P45983 other isoform, or with tags, fused parts or gaps limits assumed): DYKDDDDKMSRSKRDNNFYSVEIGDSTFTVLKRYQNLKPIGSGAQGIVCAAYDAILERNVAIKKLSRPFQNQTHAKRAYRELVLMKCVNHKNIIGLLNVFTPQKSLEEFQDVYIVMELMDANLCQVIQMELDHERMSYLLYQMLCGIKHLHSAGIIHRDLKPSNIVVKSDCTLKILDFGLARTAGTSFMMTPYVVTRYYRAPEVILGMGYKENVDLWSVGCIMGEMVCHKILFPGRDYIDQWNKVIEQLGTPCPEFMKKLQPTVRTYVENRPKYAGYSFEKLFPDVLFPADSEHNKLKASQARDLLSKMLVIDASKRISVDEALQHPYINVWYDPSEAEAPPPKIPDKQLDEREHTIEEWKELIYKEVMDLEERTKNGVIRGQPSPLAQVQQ

Turning to ERK2 (immune complex from CHO cells), the “phosphorylation of substrate (myelin basic protein) by ERK, immune complex kinase assay” value in data set [1] is “JIP-1 caused no significant change in the phosphorylation of substrates by the related MAP kinases p38 and ERK2”. JNK (immune complex from CHO cells): the “phosphorylation of c-Jun (GST-Jun) by JNK, immune complex kinase assay” value in data set [1] is “JIP-1 markedly inhibited the phosphorylation of c-Jun by JNK”. As to p38 (immune complex from CHO cells), the “phosphorylation of substrate (GST-ATF2) by p38, immune complex kinase assay” value in data set [1] was “JIP-1 caused no significant change in the phosphorylation of substrates by the related MAP kinases p38 and ERK2”.

B1: GST-JIP-1 fusion protein containing residues 203-281 of JIP-1 (other)
chain: PHEHICLSDELPPQGSPVPTQDRGTSTDSPCRRSAATQMAPPSGPPATAPGGRGHSHRDRIHYQADVRLEATEEIYLTP
notes: not shown: glutathione-S-transferase (GST) of vector pGEX-3X
Take B1: the binding result in data set [2] is reported as “no binding”.

B2: GST-JIP-1 fusion protein containing residues 164-240 of JIP-1 (other)
chain: PQVPRSQDTLNNNSLGKKHSWQDRVSRSSSPLKTGEQTPPHEHICLSDELPPQGSPVPTQDRGTSTDSPCRRSAATQ
notes: as for B1
For B2, in data set [2], the binding result was “no binding”.
